Laboratory results: publication PMC9240080 (Nature Communications, 2022)

Assays:
Test in all cases: ELISA
Details in all cases: both partners purified
[1] = target: SHC014-CoV RBD-His8-SpyTag003 (Bat SARS-like coronavirus RsSHC014, heterogeneous N-linked glycosylation)
[2] = target: RaTG13-CoV RBD-His8-SpyTag003 (Bat coronavirus RaTG13, heterogeneous N-linked glycosylation)
[3] = target: Rf1-CoV RBD-His8-SpyTag003 (Bat SARS-like coronavirus Rf1, heterogeneous N-linked glycosylation)
[4] = target: pangolin17 (pang17)-CoV RBD-His8-SpyTag003 (Pangolin coronavirus pang17, heterogeneous N-linked glycosylation)
[5] = target: BM48-31-CoV RBD-His8-SpyTag003 (Bat coronavirus BM48-31, heterogeneous N-linked glycosylation)
[6] = target: WIV1-CoV RBD-His8-SpyTag003 (Bat SARS-like coronavirus WIV1, heterogeneous N-linked glycosylation)
[7] = target: BtKY72-CoV RBD-His8-SpyTag003 (Bat coronavirus BtKY72, heterogeneous N-linked glycosylation)
[8] = target: RmYN02-CoV RBD-His8-SpyTag003 (Bat coronavirus RmYN02, heterogeneous N-linked glycosylation)
[9] = target: Rs4081-CoV RBD-His8-SpyTag003 (Bat SARS-like coronavirus Rs4081, heterogeneous N-linked glycosylation)
[10] = target: Yunnan2011 (Yun11)-CoV RBD-His8-SpyTag003 (Bat coronavirus Cp/Yunnan2011, heterogeneous N-linked glycosylation)

Measured: binding result

B1: EY6A (antibody, V domains shown)
VH: EVQLVESGGGVVQPGRSLRLSCAASAFTFSSYDMHWVRQAPGKGLEWVAVISYDGSNKYYADSVKGRFTISRDNSKNTLYLQMNSLRAEDTAVYYCAKDGGKLWVYYFDYWGQGTLVTVSS
VL: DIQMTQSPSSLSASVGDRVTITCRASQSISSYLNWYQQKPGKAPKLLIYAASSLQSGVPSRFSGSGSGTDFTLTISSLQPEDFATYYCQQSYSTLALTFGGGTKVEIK
binds: [1] | [2] | [3] | [4] | [5] | [6] | [7] | [8] | [9] | [10]
